Data on one substance can be found in patent publication US20060270832A1.

The target in this assay is human noradrenaline transporter (hNET) (human) (UniProt P23975). Briefly: cell-based or functional assay.
Sequence of human noradrenaline transporter (hNET) (human) (P23975 whole entry): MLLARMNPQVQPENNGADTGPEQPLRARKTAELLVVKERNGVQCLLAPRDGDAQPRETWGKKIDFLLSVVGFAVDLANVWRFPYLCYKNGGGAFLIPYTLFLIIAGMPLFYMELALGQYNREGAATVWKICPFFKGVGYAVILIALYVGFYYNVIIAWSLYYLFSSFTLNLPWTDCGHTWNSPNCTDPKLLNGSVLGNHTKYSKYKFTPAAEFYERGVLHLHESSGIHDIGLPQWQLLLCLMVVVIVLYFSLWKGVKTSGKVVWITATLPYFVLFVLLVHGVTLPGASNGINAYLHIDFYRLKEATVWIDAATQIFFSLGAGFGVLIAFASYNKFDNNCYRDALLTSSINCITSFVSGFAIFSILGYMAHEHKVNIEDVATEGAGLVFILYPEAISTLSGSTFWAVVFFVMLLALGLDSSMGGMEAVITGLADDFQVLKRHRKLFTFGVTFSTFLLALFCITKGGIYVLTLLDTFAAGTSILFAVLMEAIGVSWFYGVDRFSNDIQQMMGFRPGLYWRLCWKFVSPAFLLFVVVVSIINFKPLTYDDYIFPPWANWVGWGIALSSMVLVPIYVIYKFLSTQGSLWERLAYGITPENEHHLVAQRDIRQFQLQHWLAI

As to χ-MrIA (peptide), the Av IC50, inhibition of NA uptake via hNET (log M (unit not given)) is -6.3.
